According to doi:10.1101/258020 (bioRxiv, 2018):
Changes are numbered by the printed parent chain. Names may count otherwise.

B1: human β-cardiac myosin subfragment-1 (short S1, sS1 (complex)
chain 1: MGDSEMAVFGAAAPYLRKSEKERLEAQTRPFDLKKDVFVPDDKQEFVKAKIVSREGGKVTAETEYGKTVTVKEDQVMQQNPPKFDKIEDMAMLTFLHEPAVLYNLKDRYGSWMIYTYSGLFCVTVNPYKWLPVYTPEVVAAYRGKKRSEAPPHIFSISDNAYQYMLTDRENQSILITGESGAGKTVNTKRVIQYFAVIAAIGDRSKKDQSPGKGTLEDQIIQANPALEAFGNAKTVRNDNSSRFGKFIRIHFGATGKLASADIETYLLEKSRVIFQLKAERDYHIFYQILSNKKPELLDMLLITNNPYDYAFISQGETTVASIDDAEELMATDNAFDVLGFTSEEKNSMYKLTGAIMHFGNMKFKLKQREEQAEPDGTEEADKSAYLMGLNSADLLKGLCHPRVKVGNEYVTKGQNVQQVIYATGALAKAVYERMFNWMVTRINATLETKQPRQYFIGVLDIAGFEIFDFNSFEQLCINFTNEKLQQFFNHHMFVLEQEEYKKEGIEWTFIDFGMDLQACIDLIEKPMGIMSILEEECMFPKATDMTFKAKLFDNHLGKSANFQKPRNIKGKPEAHFSLIHYAGIVDYNIIGWLQKNKDPLNETVVGLYQKSSLKLLSTLFANYAGADAPIEKGKGKAKKGSSFQTVSALHRENLNKLMTNLRSTHPHFVRCIIPNETKSPGVMDNPLVMHQLRCNGVLEGIRICRKGFPNRILYGDFRQRYRILNPAAIPEGQFIDSRKGAEKLLSSLDIDHNQYKFGHTKVFFKAGLLGLLEEMRDERLSRIITRIQAQSRGVLARMEYKKLLERR
chain 2: not shown
B2: human β-cardiac myosin sS1-eGFP (MYH7 1-808) H251N with essential light chain (complex)
chain 1: B1 chain 1 with H251N
chain 2: not shown
B3: human β-cardiac myosin sS1-eGFP (MYH7 1-808) D239N with essential light chain (complex)
chain 1: B1 chain 1 with D239N
chain 2: not shown
B4: human β-cardiac myosin sS1-eGFP (MYH7 1-808) A223T with essential light chain (complex)
chain 1: B1 chain 1 with A223T
chain 2: not shown
B5: human β-cardiac myosin sS1-eGFP (MYH7 1-808) R237W with essential light chain (complex)
chain 1: B1 chain 1 with R237W
chain 2: not shown
B6: human β-cardiac myosin sS1-eGFP (MYH7 1-808) S532P with essential light chain (complex)
chain 1: B1 chain 1 with S532P
chain 2: not shown

molecular target: T1, TMR-phalloidin-labelled biotinylated actin filaments (Cytoskeleton) (UniProt P68135 1-377, biotin (~1 biotin per monomer)); assay: optical trap

k0 (detachment rate from actin at zero load) with F3345 | Binder
36 s⁻¹ | B1
20 s⁻¹ | B2
24 s⁻¹ | B3

molecular target: T1, TMR-phalloidin-labelled biotinylated …; assay: optical trap; remark: another data set of the same source

k0 (detachment rate from actin at zero load) | Binder
152 s⁻¹ | B2
140 s⁻¹ | B3
104 s⁻¹ | B4
155 s⁻¹ | B5
80 s⁻¹ | B6
